From the supplement of paper PMC10201428
± gives the standard deviation of the averaged measurements.

Experiments:
[1] = test system: VchCAST RNA-guided transposition machinery (E. coli BL21(DE3) host, lacZ target); experiment: relative integration efficiency (T-LR orientation) vs wild-type transposon end (log2 (normalized fold change)); transposon end mutated: right end (5 bp flank + 75 bp right end); higher = more efficient transposition
How it was run: (§1)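 Barcode abundances in input plasmids and in genomic integration junctions were obtained by PCR amplification and Illumina sequencing. These came from E. coli BL21(DE3) co-transformed with a T7-driven effector plasmid and a pUC57 donor carrying 1549 left-end or 1849 right-end transposon variants, then plated with 0.1 mM IPTG at 37°C for 18 h. Relative integration efficiency is the output/input fold change, normalised to reference barcodes and log-transformed.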

[2] = test system: VchCAST RNA-guided transposition machinery (E. coli BL21(DE3) host, lacZ target); experiment: relative integration efficiency (T-RL orientation) vs wild-type transposon end (log2 (normalized fold change)); transposon end mutated: right end (5 bp flank + 75 bp right end); higher = more efficient transposition
How it was run: as §1

Sequence	relative integration efficiency (log2) [1]	relative integration efficiency (log2) [2]
ACATTTGTTGATACAACCATAAAATGATAATTACACCCATAAAAAGATAATTATCACACCCATAAATTGATATTGCCTCTGATCATAGTCAGACCAACATTGCTACGACCCGTATTCGCACCGACAC	-1.08 ± 0.96	-0.162 ± 0.011
ACATTTGTTGATACAACCATAAATTGATAATTACACCCATAAAATGATAATTATCACACCCATAAAATGATATTGCCTCTGATCATAGTCAGACCAACATTGCTACGACCCGTATTCGCACCGACAC	-0.368 ± 0.16	-0.12 ± 0.2
ACATTTGTTGATACAACCATAAAATGTAAATTACACCCATAAATTGATAATTATCACACCCATAAATTGATATTGCCTCTGATCATAGTCAGACCAACATTGCTACGACCCGTATTCGCACCGACAC	-0.454 ± 0.18	-0.732 ± 0.084
ACATTTCTTCATACAACCATAAAATGATAATTACACCCATAAATTGATCATTATCACACCCAATTTAACTATAACGCTCTGATCATAGTCAGACCAACATTGCTACGACCCGTATTCGCACCGACAC	-3.3 ± 0.16	-4.44 ± 0.65
ACCGTTGTTGATACAACCATAAAATGATAATTACACCCATAAATTGATAATTATCACACCCATAAATTGATATTGCCTCTGATCATAGTCAGACCAACATTGCTACGACCCGTATTCGCACCGACAC	0.612 ± 0.13	-0.00193 ± 0.024
ACATTTGTTGATACCACCATAAAATGGTAATTACACCCATACATTGATAATTATCACACCCAATTTAACTATAACGCTCTGATCATAGTCAGACCAACATTGCTACGACCCGTATTCGCACCGACAC	0.455 ± 0.2	-2.87 ± 0.24
ACATTTGTTGATACAACCATAAAAAGATAATTACACCCATAAATTGATAATTGTGACACCGAATTTAACTATAACGCTCTGATCATAGTCAGACCAACATTGCTACGACCCGTATTCGCACCGACAC	2.38 ± 0.082	-1.15 ± 0.29
ACATTTGCTGATACAACCATATAATGATAATAACACCCATAAAATGATAATTATCACACCCAATTTAACTATAACGCTCTGATCATAGTCAGACCAACATTGCTACGACCCGTATTCGCACCGACAC	0.121 ± 0.33	-2.08 ± 0.55
ACATTTGTTGATACAACCATAAAATGATAATTACACCCATAAATGGATAATTATCACCCCCAATTTAACTATAACGCTCTGATCATAGTCAGACCAACATTGCTACGACCCGTATTCGCACCGACAC	1.64 ± 0.048	-1.3 ± 0.18
ACATTTGTTGATACAACCATATATTGATATCTCCAACCATAAAGTGATATTTATCACACCCATAAATTGATAATTACTCTGATCATAGTCAGACCAACATTGCTACGACCCGTATTCGCACCGACAC	-0.426 ± 0.18	-0.578 ± 0.023
ACATTTGTTGATACACCCATAAATTGATATTGCCACCCATAAATTGATATTGCTCACACCCATAAATTGATAATTACTCTGATCATAGTCAGACCAACATTGCTACGACCCGTATTCGCACCGACAC	0.226 ± 0.19	-1.21 ± 0.15
ACATTTGTTGATATAATTATCATTTTATGGTTGCAACCATAAAATGATAATTATCACAACCATAAAATGATAATTACTCTGATCATAGTCAGACCAACATTGCTACGACCCGTATTCGCACCGACAC	-4.32 ± 2.7	-3.54 ± 0.15
ACATTTGTTGATACAACCATAAAATGATAATTAATAATTATTTATCACCCATAAATTGATAATTATCAACAAACGCCCGGTCGCGGTACTCTGATCATAGTCAGACCAACATTGCTACGACCCGTAT	2.6 ± 0.053	-0.654 ± 0.39
ACATTTGTTGATACAACCATAAAATGATAATTAATAATTATTTATAATCACACCCATAAATTGATAATTATCAACAAACGCCCGGTCGCGGTACTCTGATCATAGTCAGACCAACATTGCTACGACC	1.25 ± 0.18	-2.09 ± 0.28
ACATTTCTTGATACAACCATAAAATGATAATTACACCCATAAATTCATAATTATCACACCCAATTTAACTATAACGCTCTGATCATAGTCAGACCAACATTGCTACGACCCGTATTCGCACCGACAC	-0.103 ± 0.73	-2.79 ± 0.24
ACATTTGTTGATACAACCATAAAACGATAATTACACCCATAAATGGATAATTATCACACCCAATTTAACTATAACGCTCTGATCATAGTCAGACCAACATTGCTACGACCCGTATTCGCACCGACAC	1.52 ± 0.035	-1.18 ± 0.21
ACATTTGTTGATACAACCATCAAATGATAATTACACCCCTAAATTGATAATTATCACACCCAATTTAACTATAACGCTCTGATCATAGTCAGACCAACATTGCTACGACCCGTATTCGCACCGACAC	-0.622 ± 0.093	-3.41 ± 0.3
ACATTTGTTGATACAACCATAAAATGATAATTAGAAACCATAATTGATAATTATCACACCCATAAATTGATATTGCCTCTGATCATAGTCAGACCAACATTGCTACGACCCGTATTCGCACCGACAC	-2.38 ± 0.52	-3.59 ± 0.08

Sequence	relative integration efficiency (log2) [1]	relative integration efficiency (log2) [2]
ACATTTGTTGATACAACCATAAAATGATAATTACACCCATAAATTGATAATTATGTGTCCCATAAATTGATATTGCCTCTGATCATAGTCAGACCAACATTGCTACGACCCGTATTCGCACCGACAC	1.63 ± 0.16	-0.725 ± 0.24
ACATTTGTTGATACAACCATAAAATGATAATTACACCCATAAATTGATAAAATACACACCCATAAATTGATATTGCCTCTGATCATAGTCAGACCAACATTGCTACGACCCGTATTCGCACCGACAC	-0.0186 ± 0.38	-0.37 ± 0.071
ACATTTGTTGATACAACCATTAAATGATAATTACACCCATAAATTGATAATTGTGACACCGAATTTAACTATAACGCTCTGATCATAGTCAGACCAACATTGCTACGACCCGTATTCGCACCGACAC	1.99 ± 0.027	-1.2 ± 0.14
ACATTTGTTGATACAACCATAAAATGATAATTACACCCATAAATTGATAATTATCACACCCATAAATTGATATTCGGACTGATCATAGTCAGACCAACATTGCTACGACCCGTATTCGCACCGACAC	0.106 ± 0.13	-0.0234 ± 0.0045
ACATTTGTTGATACAACCATAAAATGATAATTACACCCATAAATTGCGCCGGCGACACAAACGCCCGGTCGCGGTAAGAGGATCATAGTCAGACCAACATTGCTACGACCCGTATTCGCACCGACAC	1.62 ± 0.053	-1.38 ± 0.23
ACATTTGTTGATACAACCATAAAATGATTATTACACCCATTAATTGATAATTATCACACCCAATTTAACTATAACGCTCTGATCATAGTCAGACCAACATTGCTACGACCCGTATTCGCACCGACAC	2.31 ± 0.036	-1.4 ± 0.34
ACATTTGTGGATACAACCATAAAATGATAATTCACCCATCAATTGATAATTATCACACCCCAATTTAACTATAACGCTCTGATCATAGTCAGACCAACATTGCTACGACCCGTATTCGCACCGACAC	0.328 ± 0.26	-2.89 ± 0.38
ACATTTGTGGATACAACCCTAAAATGATAATTACACCCATAAATTCATCATTATCACCCCCAATTTAACTATAACGCTCTGATCATAGTCAGACCAACATTGCTACGACCCGTATTCGCACCGACAC	-1.47 ± 0.4	-4.53 ± 0.011
ACATTTGTTGATACAACCATAAAATGATAATTACACCCATAAATTGATAATTATCACACCCATAAATTGATATTGCCTCTGATCATAGTCAACCATAAAATGATAATTACAGACCAAGCACCGACAC	-0.792 ± 0.34	-0.223 ± 0.2
ACATTTGTTGATACAACCATAACATGATAATTACACCCATAACTTGATAATTATCACACCCATAACTTGATATTGCCTCTGATCATAGTCAGACCAACATTGCTACGACCCGTATTCGCACCGACAC	-0.127 ± 0.35	-0.3313 ± 0.00055
ACATTAGTGGATACAACCATAAAATGATAATTACACCCATAAATTGATAATTATCACACCCAATTTAACTATAACGCTCTGATCATAGTCAGACCAACATTGCTACGACCCGTATTCGCACCGACAC	-3.09 ± 0.75	-5.98 ± 0.27
ACATTTGTTGATACAACCATAAAATGATAATTACACCCATAAATTGTATTTTATCACACCCATAAATTGATATTGCCTCTGATCATAGTCAGACCAACATTGCTACGACCCGTATTCGCACCGACAC	-0.327 ± 0.39	-0.924 ± 0.063
ACATTTGTTGATACTACCATAAAATGATAATTACTCCCATAAATTGATAATTATCACTCCCATAAATTGATATTGCCTCTGATCATAGTCAGACCAACATTGCTACGACCCGTATTCGCACCGACAC	-0.0376 ± 0.31	-0.805 ± 0.022
ACATTTGTTGATACAACCATAAAATGATCATTCACCCCTAAATTGATAATTATCACACCCACATTTAACTATAACGCTCTGATCATAGTCAGACCAACATTGCTACGACCCGTATTCGCACCGACAC	-0.712 ± 0.069	-4.31 ± 0.082
ACATTTGTTGATACAACCATTAAATGATAATTCCACCAATAAATTGATAATTATCACACCCAATTTAACTATAACGCTCTGATCATAGTCAGACCAACATTGCTACGACCCGTATTCGCACCGACAC	1.37 ± 0.042	-1.51 ± 0.17
ACATTTGTTGATACAACCATAAAATGATAATTACTCTGATCATAGTCAGACCAACATTCACCCATAAATTGATAATTATCACACCCATAAATTGATATTGCGCTACGACCCGTATTCGCACCGACAC	-2.04 ± 0.32	-4.53 ± 0.13
ACATTTGTTGATACAACCATATATTGATATCTCCACCCATAAATTGATAATTATCACAACCATAAAATGATAATTACTCTGATCATAGTCAGACCAACATTGCTACGACCCGTATTCGCACCGACAC	-0.483 ± 0.35	-0.253 ± 0.0069
